# In patent US20260265329A1, “POLYPEPTIDE AND DERIVATIVE THEREOF, COMPOSITION, AND USE THEREOF” (HANGZHOU SCIWIND BIOSCIENCES CO., LTD., priority 2023, published 2026):
# Starred links: 1 amine or outer side, 2 acyl side, 3 side chain; linkers in the order of their positions; H or OH if unused. Non-standard residues stand in square brackets, D forms with d. Primed or numbered codes have the meaning given here. *: point of attachment. C20 diacid = O=C(O)CCCCCCCCCCCCCCCCCCC(=O)*; γGlu = O=C(O)[C@H](CCC(=O)[*:2])N[*:1]; βAsp = O=C(O)[C@H](CC(=O)[*:2])N[*:1]; Hyp = O=C(O)[C@@H]1C[C@@H](O)CN1; Inp′ = not defined here; Trx′ = not defined here; AEEA = NCCOCCOCC(=O)O
# T1: human amylin receptor on CHO-K1/Ga15/AMY3 cells (amylin receptor/CRE-luc cell line) (human) (UniProt P30988)
# T1 sequence (looked up) 1: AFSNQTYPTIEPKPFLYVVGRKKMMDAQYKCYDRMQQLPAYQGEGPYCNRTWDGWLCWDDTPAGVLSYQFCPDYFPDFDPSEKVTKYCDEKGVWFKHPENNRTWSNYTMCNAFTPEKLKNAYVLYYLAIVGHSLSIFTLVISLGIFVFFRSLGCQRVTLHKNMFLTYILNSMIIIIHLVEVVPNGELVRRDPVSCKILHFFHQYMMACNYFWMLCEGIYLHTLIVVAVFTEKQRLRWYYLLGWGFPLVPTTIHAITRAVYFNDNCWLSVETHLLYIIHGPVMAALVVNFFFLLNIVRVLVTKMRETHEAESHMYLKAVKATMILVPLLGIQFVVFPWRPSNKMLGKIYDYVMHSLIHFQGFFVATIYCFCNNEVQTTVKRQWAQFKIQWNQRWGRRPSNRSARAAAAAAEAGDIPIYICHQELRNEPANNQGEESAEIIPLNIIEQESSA
# T1 sequence (looked up) 2: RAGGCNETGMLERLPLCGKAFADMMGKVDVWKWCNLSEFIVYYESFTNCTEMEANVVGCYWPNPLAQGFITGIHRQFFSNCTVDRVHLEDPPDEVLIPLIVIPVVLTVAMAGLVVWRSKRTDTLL
# Biological target: T1, human amylin receptor on CHO-K1/Ga15/AMY3 cells (amylin receptor/CRE-luc cell line) (human)
# Experiment: cell-based or functional assay
Binder,"EC50 (luciferase assay, amylin receptor/CRE-luc CHO cells)",Relative activity (the EC50 ratio of Cagrilintide to the compound)
{C20 diacid-γGlu-AEEA-AEEA}-ASQLSTAATQRLADFLRHSSNNLKPILPPTNVGSNT[Hyp]-NH2 (SMILES CC[C@H](C)[C@H](NC(=O)[C@@H]1CCCN1C(=O)[C@H](CCCCN)NC(=O)[C@H](CC(C)C)NC(=O)[C@H](CC(N)=O)NC(=O)[C@H](CC(N)=O)NC(=O)[C@H](CO)NC(=O)[C@H](CO)NC(=O)[C@H](Cc1c[nH]cn1)NC(=O)[C@H](CCCNC(=N)N)NC(=O)[C@H](CC(C)C)NC(=O)[C@H](Cc1ccccc1)NC(=O)[C@H](CC(=O)O)NC(=O)[C@H](C)NC(=O)[C@H](CC(C)C)NC(=O)[C@H](CCCNC(=N)N)NC(=O)[C@H](CCC(N)=O)NC(=O)[C@@H](NC(=O)[C@H](C)NC(=O)[C@H](C)NC(=O)[C@@H](NC(=O)[C@H](CO)NC(=O)[C@H](CC(C)C)NC(=O)[C@H](CCC(N)=O)NC(=O)[C@H](CO)NC(=O)[C@H](C)NC(=O)COCCOCCNC(=O)COCCOCCNC(=O)CC[C@H](NC(=O)CCCCCCCCCCCCCCCCCCC(=O)O)C(=O)O)[C@@H](C)O)[C@@H](C)O)C(=O)N[C@@H](CC(C)C)C(=O)N1CCC[C@H]1C(=O)N1CCC[C@H]1C(=O)N[C@H](C(=O)N[C@@H](CC(N)=O)C(=O)N[C@H](C(=O)NCC(=O)N[C@@H](CO)C(=O)N[C@@H](CC(N)=O)C(=O)N[C@H](C(=O)N1C[C@H](O)C[C@H]1C(N)=O)[C@@H](C)O)C(C)C)[C@@H](C)O) [M31],0.168 nM,30%
{C20 diacid}-DASQLSTAATQRLADFLRHSSNNLKPILPPTNVGSNT[Hyp]-NH2 (SMILES CC[C@H](C)[C@H](NC(=O)[C@@H]1CCCN1C(=O)[C@H](CCCCN)NC(=O)[C@H](CC(C)C)NC(=O)[C@H](CC(N)=O)NC(=O)[C@H](CC(N)=O)NC(=O)[C@H](CO)NC(=O)[C@H](CO)NC(=O)[C@H](Cc1c[nH]cn1)NC(=O)[C@H](CCCNC(=N)N)NC(=O)[C@H](CC(C)C)NC(=O)[C@H](Cc1ccccc1)NC(=O)[C@H](CC(=O)O)NC(=O)[C@H](C)NC(=O)[C@H](CC(C)C)NC(=O)[C@H](CCCNC(=N)N)NC(=O)[C@H](CCC(N)=O)NC(=O)[C@@H](NC(=O)[C@H](C)NC(=O)[C@H](C)NC(=O)[C@@H](NC(=O)[C@H](CO)NC(=O)[C@H](CC(C)C)NC(=O)[C@H](CCC(N)=O)NC(=O)[C@H](CO)NC(=O)[C@H](C)NC(=O)[C@H](CC(=O)O)NC(=O)CCCCCCCCCCCCCCCCCCC(=O)O)[C@@H](C)O)[C@@H](C)O)C(=O)N[C@@H](CC(C)C)C(=O)N1CCC[C@H]1C(=O)N1CCC[C@H]1C(=O)N[C@H](C(=O)N[C@@H](CC(N)=O)C(=O)N[C@H](C(=O)NCC(=O)N[C@@H](CO)C(=O)N[C@@H](CC(N)=O)C(=O)N[C@H](C(=O)N1C[C@H](O)C[C@H]1C(N)=O)[C@@H](C)O)C(C)C)[C@@H](C)O) [M28],0.039 nM,128%
{C20 diacid-βAsp}-ASQLSTAATQRLADFLRHSSNNLKPILPPTNVGSNT[Hyp]-NH2 (SMILES CC[C@H](C)[C@H](NC(=O)[C@@H]1CCCN1C(=O)[C@H](CCCCN)NC(=O)[C@H](CC(C)C)NC(=O)[C@H](CC(N)=O)NC(=O)[C@H](CC(N)=O)NC(=O)[C@H](CO)NC(=O)[C@H](CO)NC(=O)[C@H](Cc1c[nH]cn1)NC(=O)[C@H](CCCNC(=N)N)NC(=O)[C@H](CC(C)C)NC(=O)[C@H](Cc1ccccc1)NC(=O)[C@H](CC(=O)O)NC(=O)[C@H](C)NC(=O)[C@H](CC(C)C)NC(=O)[C@H](CCCNC(=N)N)NC(=O)[C@H](CCC(N)=O)NC(=O)[C@@H](NC(=O)[C@H](C)NC(=O)[C@H](C)NC(=O)[C@@H](NC(=O)[C@H](CO)NC(=O)[C@H](CC(C)C)NC(=O)[C@H](CCC(N)=O)NC(=O)[C@H](CO)NC(=O)[C@H](C)NC(=O)C[C@H](NC(=O)CCCCCCCCCCCCCCCCCCC(=O)O)C(=O)O)[C@@H](C)O)[C@@H](C)O)C(=O)N[C@@H](CC(C)C)C(=O)N1CCC[C@H]1C(=O)N1CCC[C@H]1C(=O)N[C@H](C(=O)N[C@@H](CC(N)=O)C(=O)N[C@H](C(=O)NCC(=O)N[C@@H](CO)C(=O)N[C@@H](CC(N)=O)C(=O)N[C@H](C(=O)N1C[C@H](O)C[C@H]1C(N)=O)[C@@H](C)O)C(C)C)[C@@H](C)O) [M27],0.064 nM,78%
{C20 diacid-Trx′}-ASQLSTAATQRLADFLRHSSNNLKPILPPTNVGSNT[Hyp]-NH2 (reading uncertain) [M29],0.122 nM,412%
{C20 diacid-Inp′}-ASQLSTAATQRLADFLRHSSNNLKPILPPTNVGSNT[Hyp]-NH2 [M30],0.039 nM,130%

# Second part, the binder after the results:
"EC50 (luciferase assay, amylin receptor/CRE-luc CHO cells)",Relative activity (the EC50 ratio of Cagrilintide to the compound),Binder
0.132 nM,40%,{C20 diacid}-D[AEEA][AEEA]ASQLSTAATQRLADFLRHSSNNLKPILPPTNVGSNT[Hyp]-NH2 (SMILES CC[C@H](C)[C@H](NC(=O)[C@@H]1CCCN1C(=O)[C@H](CCCCN)NC(=O)[C@H](CC(C)C)NC(=O)[C@H](CC(N)=O)NC(=O)[C@H](CC(N)=O)NC(=O)[C@H](CO)NC(=O)[C@H](CO)NC(=O)[C@H](Cc1c[nH]cn1)NC(=O)[C@H](CCCNC(=N)N)NC(=O)[C@H](CC(C)C)NC(=O)[C@H](Cc1ccccc1)NC(=O)[C@H](CC(=O)O)NC(=O)[C@H](C)NC(=O)[C@H](CC(C)C)NC(=O)[C@H](CCCNC(=N)N)NC(=O)[C@H](CCC(N)=O)NC(=O)[C@@H](NC(=O)[C@H](C)NC(=O)[C@H](C)NC(=O)[C@@H](NC(=O)[C@H](CO)NC(=O)[C@H](CC(C)C)NC(=O)[C@H](CCC(N)=O)NC(=O)[C@H](CO)NC(=O)[C@H](C)NC(=O)COCCOCCNC(=O)COCCOCCNC(=O)[C@H](CC(=O)O)NC(=O)CCCCCCCCCCCCCCCCCCC(=O)O)[C@@H](C)O)[C@@H](C)O)C(=O)N[C@@H](CC(C)C)C(=O)N1CCC[C@H]1C(=O)N1CCC[C@H]1C(=O)N[C@H](C(=O)N[C@@H](CC(N)=O)C(=O)N[C@H](C(=O)NCC(=O)N[C@@H](CO)C(=O)N[C@@H](CC(N)=O)C(=O)N[C@H](C(=O)N1C[C@H](O)C[C@H]1C(N)=O)[C@@H](C)O)C(C)C)[C@@H](C)O) [M34]
0.145 nM,37%,{C20 diacid-βAsp-AEEA-AEEA}-ASQLSTAATQRLADFLRHSSNNLKPILPPTNVGSNT[Hyp]-NH2 (SMILES CC[C@H](C)[C@H](NC(=O)[C@@H]1CCCN1C(=O)[C@H](CCCCN)NC(=O)[C@H](CC(C)C)NC(=O)[C@H](CC(N)=O)NC(=O)[C@H](CC(N)=O)NC(=O)[C@H](CO)NC(=O)[C@H](CO)NC(=O)[C@H](Cc1c[nH]cn1)NC(=O)[C@H](CCCNC(=N)N)NC(=O)[C@H](CC(C)C)NC(=O)[C@H](Cc1ccccc1)NC(=O)[C@H](CC(=O)O)NC(=O)[C@H](C)NC(=O)[C@H](CC(C)C)NC(=O)[C@H](CCCNC(=N)N)NC(=O)[C@H](CCC(N)=O)NC(=O)[C@@H](NC(=O)[C@H](C)NC(=O)[C@H](C)NC(=O)[C@@H](NC(=O)[C@H](CO)NC(=O)[C@H](CC(C)C)NC(=O)[C@H](CCC(N)=O)NC(=O)[C@H](CO)NC(=O)[C@H](C)NC(=O)COCCOCCNC(=O)COCCOCCNC(=O)C[C@H](NC(=O)CCCCCCCCCCCCCCCCCCC(=O)O)C(=O)O)[C@@H](C)O)[C@@H](C)O)C(=O)N[C@@H](CC(C)C)C(=O)N1CCC[C@H]1C(=O)N1CCC[C@H]1C(=O)N[C@H](C(=O)N[C@@H](CC(N)=O)C(=O)N[C@H](C(=O)NCC(=O)N[C@@H](CO)C(=O)N[C@@H](CC(N)=O)C(=O)N[C@H](C(=O)N1C[C@H](O)C[C@H]1C(N)=O)[C@@H](C)O)C(C)C)[C@@H](C)O) [M33]
0.115 nM,44%,{C20 diacid}-E[AEEA][AEEA]ASQLSTAATQRLADFLRHSSNNLKPILPPTNVGSNT[Hyp]-NH2 (SMILES CC[C@H](C)[C@H](NC(=O)[C@@H]1CCCN1C(=O)[C@H](CCCCN)NC(=O)[C@H](CC(C)C)NC(=O)[C@H](CC(N)=O)NC(=O)[C@H](CC(N)=O)NC(=O)[C@H](CO)NC(=O)[C@H](CO)NC(=O)[C@H](Cc1c[nH]cn1)NC(=O)[C@H](CCCNC(=N)N)NC(=O)[C@H](CC(C)C)NC(=O)[C@H](Cc1ccccc1)NC(=O)[C@H](CC(=O)O)NC(=O)[C@H](C)NC(=O)[C@H](CC(C)C)NC(=O)[C@H](CCCNC(=N)N)NC(=O)[C@H](CCC(N)=O)NC(=O)[C@@H](NC(=O)[C@H](C)NC(=O)[C@H](C)NC(=O)[C@@H](NC(=O)[C@H](CO)NC(=O)[C@H](CC(C)C)NC(=O)[C@H](CCC(N)=O)NC(=O)[C@H](CO)NC(=O)[C@H](C)NC(=O)COCCOCCNC(=O)COCCOCCNC(=O)[C@H](CCC(=O)O)NC(=O)CCCCCCCCCCCCCCCCCCC(=O)O)[C@@H](C)O)[C@@H](C)O)C(=O)N[C@@H](CC(C)C)C(=O)N1CCC[C@H]1C(=O)N1CCC[C@H]1C(=O)N[C@H](C(=O)N[C@@H](CC(N)=O)C(=O)N[C@H](C(=O)NCC(=O)N[C@@H](CO)C(=O)N[C@@H](CC(N)=O)C(=O)N[C@H](C(=O)N1C[C@H](O)C[C@H]1C(N)=O)[C@@H](C)O)C(C)C)[C@@H](C)O) [M32]
